Several values for one entry are separate records, joined by “and”; a condition that tells them apart may be missing. Equal values may be shown once. Read-outs that look alike come from different tables or passages of the source. One block for each molecule: values may come before it. No end group written: not given here.
Tests used:
[1] = biological target: extracellular domain of human β-Klotho (sKLB) (human) (UniProt Q86Z14); test: MST competition; GST-FGF21CT variant titrated into a constant sKLB/fl-FGF21 mixture
[2] = biological target: T1, extracellular domain of human β-Klotho (sKLB) (human, UniProt Q86Z14 53-983); test: MST competition: GST-FGF21CT titrated into a constant mixture of sKLB and fluorescently labelled FGF21 (competitor: fl-FGF21)
T1 construct: Made in HEK293-EBNA cells; also called WT sKLB; not shown: remnant of the TEV protease cleavage site / four-Gly linker left after the Fc tag was cut off
T1 sequence: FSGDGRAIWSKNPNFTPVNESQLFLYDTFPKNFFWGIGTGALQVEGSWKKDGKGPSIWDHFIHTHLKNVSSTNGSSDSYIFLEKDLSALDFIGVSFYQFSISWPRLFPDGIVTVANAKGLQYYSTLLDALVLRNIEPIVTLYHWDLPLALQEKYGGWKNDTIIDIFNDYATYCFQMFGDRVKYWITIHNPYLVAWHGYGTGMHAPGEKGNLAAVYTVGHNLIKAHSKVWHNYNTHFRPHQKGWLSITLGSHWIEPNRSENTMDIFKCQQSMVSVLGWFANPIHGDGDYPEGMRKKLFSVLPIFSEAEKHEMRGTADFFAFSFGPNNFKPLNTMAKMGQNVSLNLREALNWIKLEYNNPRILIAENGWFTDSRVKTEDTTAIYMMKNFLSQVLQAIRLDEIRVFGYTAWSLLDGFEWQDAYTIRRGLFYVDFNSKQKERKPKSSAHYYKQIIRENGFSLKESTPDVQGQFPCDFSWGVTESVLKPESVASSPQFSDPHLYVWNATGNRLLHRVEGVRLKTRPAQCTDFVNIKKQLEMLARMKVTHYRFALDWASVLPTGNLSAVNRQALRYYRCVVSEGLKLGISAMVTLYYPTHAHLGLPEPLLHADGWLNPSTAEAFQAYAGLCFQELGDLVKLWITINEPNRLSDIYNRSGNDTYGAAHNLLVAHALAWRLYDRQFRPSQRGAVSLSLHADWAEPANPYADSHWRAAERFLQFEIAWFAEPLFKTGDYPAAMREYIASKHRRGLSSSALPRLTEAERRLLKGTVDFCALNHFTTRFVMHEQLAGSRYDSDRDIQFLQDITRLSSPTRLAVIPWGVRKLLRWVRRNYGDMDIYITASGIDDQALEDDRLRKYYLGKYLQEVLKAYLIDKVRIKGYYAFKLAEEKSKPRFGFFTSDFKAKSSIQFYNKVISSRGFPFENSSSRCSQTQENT
Procedure: (§1) All MST measurements were performed using the Monolith NT.115Pico instrument (NanoTemper Technologies) with Monolith NT.115 MST Premium Coated Capillaries. Purified FGF21 was fluorescently labeled using the Monolith Protein Labeling Kit RED-NHS (NanoTemper Technologies) according to the instruction provided by the manufacturer. […] The thermophoretic movements of fl-FGF21 in each samples were monitored (LED 20%, IR laser 20%,) and the normalized fluorescence intensities (FNorm), defined as Fₕₒₜ/Fcold (where Fcold and Fₕₒₜ refer to the fluorescence intensities averaged over […] before IR laser is on and 29 s after IR laser is on, respectively), for each samples were plotted against the concentrations of sKLB. For the competition assays, the thermophoresis of fl-FGF21 was measured for samples where the concentration of fl-FGF21 and sKLB mixture was kept constant with the concentrations of GST-FGF21CT varying from 2.1 nM to 35000 nM. All the data were analyzed with the MO Affinity Analysis software (NanoTemper Technologies) provided by the manufacturer.
(§2) To measure binding of the C-terminal fragment of FGF21 (FGF21CT) to sKLB, an MST-based competition assay was used, in which GST-fused FGF21CT (GST-FGF21CT) was titrated into a constant sKLB/fl-FGF21 mixture (FIG. 6C).

[3] = biological target: T1, extracellular domain of human β-Klotho …; test: MST competition; GST-FGF21CT titrated into a constant sKLB/fl-FGF21 mixture
Procedure: as §1, §2

[4] = biological target: T1, extracellular domain of human β-Klotho …; test: SPR; GST-FGF21CT immobilized on a sensor chip using anti-GST, sKLB in solution
[5] = biological target: T1, extracellular domain of human β-Klotho …; test: MST competition: GST-FGF21CT titrated into a constant mixture of sKLB and fluorescently labelled FGF21 (competitor: fl-FGF21); remark: listed apart in the source
Procedure: as §1, §2

[6] = biological target: T1, extracellular domain of human β-Klotho …; test: quantitative binding studies, method not given
[7] = biological target: T1, extracellular domain of human β-Klotho …; test: MST; 35 nM fluorescently labeled FGF21, sKLB titrated 0.03-1000 nM
Procedure: as §1
The affinity of FGF21 for sKLB was measured using MicroScale Thermophoresis or MST (Seidel et al., 2013, methods 59:301-315), where the thermophoretic movement of fluorescently-labeled FGF21 (fl-FGF21) in solution is monitored upon sKLB binding.

β-Klotho lacking D2 = biological target: T2, β-Klotho lacking D2 (human, UniProt Q86Z14 53-507); test: SPR and/or MST
T2 sequence: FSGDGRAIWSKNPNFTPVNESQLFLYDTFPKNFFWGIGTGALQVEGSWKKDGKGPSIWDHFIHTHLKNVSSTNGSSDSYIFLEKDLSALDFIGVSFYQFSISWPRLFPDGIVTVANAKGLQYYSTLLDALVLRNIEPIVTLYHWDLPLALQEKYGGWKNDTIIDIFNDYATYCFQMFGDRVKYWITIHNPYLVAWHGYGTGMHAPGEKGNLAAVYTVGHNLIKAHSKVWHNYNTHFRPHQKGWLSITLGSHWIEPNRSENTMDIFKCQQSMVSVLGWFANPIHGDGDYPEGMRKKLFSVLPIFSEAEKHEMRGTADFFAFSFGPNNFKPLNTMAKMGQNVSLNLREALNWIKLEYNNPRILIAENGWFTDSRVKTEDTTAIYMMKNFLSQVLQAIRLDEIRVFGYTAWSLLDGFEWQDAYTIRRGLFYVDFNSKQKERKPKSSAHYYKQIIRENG

[8] = biological target: T3, full-length human β-Klotho (KLB), C-terminal HA-tagged, on L6 cells (human, UniProt Q86Z14 53-1044); test: cell-based or functional assay
T3 sequence: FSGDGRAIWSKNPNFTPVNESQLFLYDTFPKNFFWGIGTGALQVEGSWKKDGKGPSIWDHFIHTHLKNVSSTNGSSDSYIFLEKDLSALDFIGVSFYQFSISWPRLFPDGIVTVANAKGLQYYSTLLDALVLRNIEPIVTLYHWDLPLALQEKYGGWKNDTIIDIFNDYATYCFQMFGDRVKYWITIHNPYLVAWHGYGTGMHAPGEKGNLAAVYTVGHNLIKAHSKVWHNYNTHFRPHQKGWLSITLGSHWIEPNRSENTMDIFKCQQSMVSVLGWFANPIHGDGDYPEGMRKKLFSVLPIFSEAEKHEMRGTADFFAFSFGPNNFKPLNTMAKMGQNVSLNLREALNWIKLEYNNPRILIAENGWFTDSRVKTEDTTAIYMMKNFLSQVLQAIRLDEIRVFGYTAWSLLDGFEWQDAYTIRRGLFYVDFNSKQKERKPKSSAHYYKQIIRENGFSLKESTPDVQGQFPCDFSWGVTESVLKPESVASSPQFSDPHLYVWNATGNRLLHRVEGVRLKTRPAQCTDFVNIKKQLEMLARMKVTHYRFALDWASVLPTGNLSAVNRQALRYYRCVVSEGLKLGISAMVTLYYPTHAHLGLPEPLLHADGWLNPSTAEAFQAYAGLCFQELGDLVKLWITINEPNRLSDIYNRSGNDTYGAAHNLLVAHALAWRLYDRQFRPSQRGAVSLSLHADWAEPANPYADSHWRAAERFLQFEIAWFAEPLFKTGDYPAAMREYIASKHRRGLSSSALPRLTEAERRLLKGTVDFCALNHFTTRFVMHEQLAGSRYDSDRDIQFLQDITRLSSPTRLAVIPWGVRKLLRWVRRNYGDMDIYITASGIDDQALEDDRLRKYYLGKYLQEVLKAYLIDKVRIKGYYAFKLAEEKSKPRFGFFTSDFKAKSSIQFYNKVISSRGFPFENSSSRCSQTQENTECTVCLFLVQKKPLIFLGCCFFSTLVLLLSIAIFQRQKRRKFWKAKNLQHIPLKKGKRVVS

[9] = biological target: T1, extracellular domain of human β-Klotho …; test: MST
Procedure: The thermophoretic movements of fl-FGF21 in each samples were monitored (LED 20%, IR laser 20%,) and the normalized fluorescence intensities (FNorm), defined as Fₕₒₜ/Fcold (where Fcold and Fₕₒₜ refer to the fluorescence intensities averaged over […] before IR laser is on and 29 s after IR laser is on, respectively), for each samples were plotted against the concentrations of sKLB. For the competition assays, the thermophoresis of fl-FGF21 was measured for samples where the concentration of fl-FGF21 and sKLB mixture was kept constant with the concentrations of GST-FGF21CT varying from 2.1 nM to 35000 nM. All the data were analyzed with the MO Affinity Analysis software (NanoTemper Technologies) provided by the manufacturer.
As endocrine FGFs play important roles in the control of metabolic processes, a variety of approaches have been utilized to develop novel therapeutics that retain (and exceed in potency) the beneficial stimulatory responses of FGF19 and or FGF21 while minimizing the side effects caused by these two hormones. […] In certain non-limiting embodiments, potency of FGF21 can be enhanced by introducing mutations into its C-terminal tail that strengthen interactions with β-Klotho. An L194F mutation was introduced to increase hydrophobic interactions with neighboring amino acids in site 1 of β-Klotho. […]

[10] = biological target: T1, extracellular domain of human β-Klotho …; test: SPR and/or MST
[11] = biological target: T1, extracellular domain of human β-Klotho …; test: MST; fluorescently labeled FGFR1cD2D3

IC50 [1]: 7160 nM
Molecule: GST-FGF21CT P193A (from UniProt Q9NSA1 169-209)

IC50 [1]: 6630 nM
Molecule: GST-FGF21CT Y207A (from UniProt Q9NSA1 169-209)

IC50 [1]: 5560 nM
Molecule: GST-FGF21CT S206A (from UniProt Q9NSA1 169-209)

IC50 [1]: 15900 nM
Molecule: GST-FGF21CT D192A (from UniProt Q9NSA1 169-209)

IC50 [1]: 5990 nM
Molecule: GST-FGF21CT S204A (from UniProt Q9NSA1 169-209)

IC50 (read off the curve) [2]: ~700 nM | IC50 [3]: 704 nM | Kd [4]: 253 nM | IC50 (read off the curve) [5]: ~700 nM
B1: GST-fused FGF21CT (GST-FGF21CT), wild type (other)
chain: GLPPALPEPPGILAPQPPDVGSSDPLSMVGPSQGRSPSYAS
modifications: not fully specified (N-terminus); also: fused to GST tag, letters not given here
notes: also called WT; not shown: glutathione S-transferase tag and linker encoded by the pGEX-4T-1 vector (GE Healthcare)

Kd [6]: 43 nM
Molecule: LPEPPGILAPQPPDVGSSDPLSMVGGSQGRSPSYES (also called FGF21CT peptide) [FGF21CT synthetic peptide (C-terminal region of FGF21, residues 174-209 with P199G and A208E)]

Kd [7]: 43.5 nM | binding result (β-Klotho lacking D2): no binding
B2: recombinant human FGF21 (amino acids 29-209 with L126R, P199G and A208E, N-terminal His6 tag) (ligand)
chain: HPIPDSSPLLQFGGQVRQRYLYTDDAQQTEAHLEIREDGTVGGAADQSPESLLQLKALKPGVIQILGVKTSRFLCQRPDGALYGSLHFDPEACSFRERLLEDGYNVYQSEAHGLPLHLPGNKSPHRDPAPRGPARFLPLPGLPPALPEPPGILAPQPPDVGSSDPLSMVGGSQGRSPSYES
modifications: fluorescently labeled with Monolith Protein Labeling Kit RED-NHS (fl-FGF21) in the MST assays
notes: Expressed in E. coli; also called fl-FGF21; wild-type FGF21; not shown: N-terminal His6 tag from the pET28a vector

stimulation of FGFR1c tyrosine phosphorylation in L6 cells coexpressing β-Klotho and FGFR1c [8]: ~10 fold | Kd [9]: 3.4 nM | fold tighter binding than wild-type FGF21 [9]: > 10 fold
B3: R203W/L194F-mutated FGF21 (FGF21WF) (ligand)
chain: HPIPDSSPLLQFGGQVRQRYLYTDDAQQTEAHLEIREDGTVGGAADQSPESLLQLKALKPGVIQILGVKTSRFLCQRPDGALYGSLHFDPEACSFRELLLEDGYNVYQSEAHGLPLHLPGNKSPHRDPAPRGPARFLPLPGLPPALPEPPGILAPQPPDVGSSDPFSMVGPSQGWSPSYAS
notes: also called FGF21 carrying a double L194F/R203W mutations

binding result [10]: no binding
B4: FGF21 lacking the 10 C-terminal amino acids (ligand)
chain: HPIPDSSPLLQFGGQVRQRYLYTDDAQQTEAHLEIREDGTVGGAADQSPESLLQLKALKPGVIQILGVKTSRFLCQRPDGALYGSLHFDPEACSFRELLLEDGYNVYQSEAHGLPLHLPGNKSPHRDPAPRGPARFLPLPGLPPALPEPPGILAPQPPDVGSSDPLSMVGP

Kd [11]: 940 nM and ~1000 nM
B5: FGFR1cD2D3 (ligand binding region of FGFR1c) (receptor, UniProt P11362 142-365, looked up)
chain: DNTKPNRMPVAPYWTSPEKMEKKLHAVPAAKTVKFKCPSSGTPNPTLRWLKNGKEFKPDHRIGGYKVRYATWSIIMDSVVPSDKGNYTCIVENEYGSINHTYQLDVVERSPHRPILQAGLPANKTVALGSNVEFMCKVYSDPQPHIQWLKHIEVNGSKIGPDNLPYVQILKTAGVNTTDKEMEVLHLRNVSFEDAGEYTCLAGNSIGLSHHSAWLTVLEALEER
modifications: fluorescently labeled in the MST assay
notes: domain: D2D3; the c splice form of FGFR1; also called FGFR1cD2D3 extracellular region

— US20200131257A1 (YALE UNIVERSITY, published 2020)
